Measurements published in patent US20090324622A1 (CELLDEX THERAPEUTICS, published 2009).

Assays:
[1] = biological target: T1, human macrophage mannose receptor (human, UniProt P22897 19-1456); experiment: flow cytometry on cultured human DCs
T1 construct: whole, on cells; also called MR; MMR
T1 sequence (looked up): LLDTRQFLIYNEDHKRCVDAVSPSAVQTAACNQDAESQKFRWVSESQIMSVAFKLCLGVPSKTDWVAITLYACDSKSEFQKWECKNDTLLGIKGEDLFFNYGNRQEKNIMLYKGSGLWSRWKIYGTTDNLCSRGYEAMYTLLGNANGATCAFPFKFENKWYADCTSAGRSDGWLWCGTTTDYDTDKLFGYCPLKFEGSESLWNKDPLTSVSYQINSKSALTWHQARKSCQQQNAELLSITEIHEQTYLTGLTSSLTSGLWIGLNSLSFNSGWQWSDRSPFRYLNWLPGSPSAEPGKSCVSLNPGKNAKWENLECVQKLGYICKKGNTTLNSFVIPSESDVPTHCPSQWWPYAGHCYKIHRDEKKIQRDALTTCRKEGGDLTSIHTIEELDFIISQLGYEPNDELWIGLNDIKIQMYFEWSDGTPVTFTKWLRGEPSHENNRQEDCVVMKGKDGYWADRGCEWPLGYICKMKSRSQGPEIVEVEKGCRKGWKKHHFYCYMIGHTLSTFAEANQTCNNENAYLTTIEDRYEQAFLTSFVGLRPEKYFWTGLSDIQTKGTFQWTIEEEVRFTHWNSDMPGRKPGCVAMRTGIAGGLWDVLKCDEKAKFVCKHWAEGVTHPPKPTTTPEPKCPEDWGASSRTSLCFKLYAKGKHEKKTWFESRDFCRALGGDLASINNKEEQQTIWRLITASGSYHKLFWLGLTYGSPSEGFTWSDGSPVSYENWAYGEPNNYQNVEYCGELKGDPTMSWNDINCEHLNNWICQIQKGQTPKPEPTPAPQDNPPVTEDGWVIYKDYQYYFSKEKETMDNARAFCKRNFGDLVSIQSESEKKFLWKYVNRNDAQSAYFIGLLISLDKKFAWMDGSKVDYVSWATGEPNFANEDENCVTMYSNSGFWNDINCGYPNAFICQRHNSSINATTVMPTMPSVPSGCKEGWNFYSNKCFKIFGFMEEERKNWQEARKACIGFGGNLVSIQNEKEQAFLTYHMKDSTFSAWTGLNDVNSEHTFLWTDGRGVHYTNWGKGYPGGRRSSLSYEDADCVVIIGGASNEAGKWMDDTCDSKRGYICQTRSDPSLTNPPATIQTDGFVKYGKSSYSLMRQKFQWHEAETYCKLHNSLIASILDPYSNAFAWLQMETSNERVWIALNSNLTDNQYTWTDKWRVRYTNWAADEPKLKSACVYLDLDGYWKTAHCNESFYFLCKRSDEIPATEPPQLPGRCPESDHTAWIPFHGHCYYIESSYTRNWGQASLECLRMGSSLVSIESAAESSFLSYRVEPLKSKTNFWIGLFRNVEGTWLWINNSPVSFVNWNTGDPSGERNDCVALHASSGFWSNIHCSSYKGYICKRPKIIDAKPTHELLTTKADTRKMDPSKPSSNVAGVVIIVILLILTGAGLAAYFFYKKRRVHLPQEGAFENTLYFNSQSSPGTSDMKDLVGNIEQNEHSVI
Experimental: Monocyte-derived DCs were exposed either to B11 sfv-βhCG or βhCG-B11 in PBS-BSA buffer for 45 minutes at 37° C. and allowed to mature overnight in the presence of CD40L. Harvested DCs were then washed and stained with mouse anti-βhCG followed by goat anti-hu IgG (Fc)-PE conjugate. Stained cells were analyzed on a flow cytometer (BD-LSR). Approximately, 10,000 events were collected for each sample. Background autofluorescence and isotype matched antibody staining served as controls. Based on the mean fluorescence intensity (MFI) (data not shown), B11 sfv-βhCG binding to MR expressed on DC is similar to that of βhCG-B11.

[2] = biological target: T1, human macrophage mannose receptor; experiment: in situ staining of MR on human tissue cryosections (immunohistochemistry)
From the text: Using the anti-MR antibody as a probe, in situ staining of MR on human dermal DCs and macrophages in section of various human tissues was examined. Human tissue cryosections were stained with anti-MR human antibody B11. DCs present in the dermal layer of the skin were clearly labeled (data not shown) with the B11 antibody. It is noted that there was binding to DCs in the dermal layer of skin. […] These studies have been repeated with the βhCG-B11 with identical results.

B1: B11sfv-βhCG construct (single chain B11 antibody, VL and VH, with βhCG fused to the carboxy terminus) (scFv)
scFv: DIQMTQSPSSLSASVGDRVTITCRASQGISRWLAWYQQKPEKAPKSLIYAASSLQSGVPSRFSGSGSGTDFTLTISGLQPEDFATYYCQQYNSYPRTFGQGTKVEIKGGGGSGGGGSGGGGSEVQLVQSGAEVKKPGESLRISCKGSGDSFTTYWIGWVRQMPGKGLEWMGIIYPGDSDTIYSPSFQGQVTISADKSISTAYLQWSSLKASDTAMYYCTRGDRGVDYWGQGTLVTVSSGSTGGGGSSSKEPLRPRCRPINATLAVEKEGCPVCITVNTTICAGYCPTMTRVLQGVLPALPQVVCNYRDVRFESIRLPGCPRGVNPVVSYAVALSCQCALCRRSTTDCGGPKDHPLTCDDPRFQDSSSSKAPPPSLPSPSRLPGPSDTPILPQ
notes: also called B11 scfv-βhCG; pB11sfv-βhCG
- binding result [1]: binds

B2: βhCG-B11 construct (whole human anti-mannose receptor antibody B11 with βhCG fused to the CH3 end of the heavy chain) (antibody)
heavy: not shown
light: DIQMTQSPSSLSASVGDRVTITCRASQGISRWLAWYQQKPEKAPKSLIYAASSLQSGVPSRFSGSGSGTDFTLTISGLQPEDFATYYCQQYNSYPRTFGQGTKVEIK
notes: Antibody-antigen fusion expressed in CHO cells; also called B11-βhCG vaccine conjugate; B11-βhCG conjugate
- binding result [1]: binds

B3: human monoclonal antibody B11 (anti-mannose receptor) (antibody, V domains shown)
VH: EVQLVQSGAEVKKPGESLRISCKGSGDSFTTYWIGWVRQMPGKGLEWMGIIYPGDSDTIYSPSFQGQVTISADKSISTAYLQWSSLKASDTAMYYCTRGDRGVDYWGQGTLVTVSS
VL: DIQMTQSPSSLSASVGDRVTITCRASQGISRWLAWYQQKPEKAPKSLIYAASSLQSGVPSRFSGSGSGTDFTLTISGLQPEDFATYYCQQYNSYPRTFGQGTKVEIK
notes: Fully human whole antibody with a kappa light chain; also called B11 mAb; anti-MR B11 HuMAb
- binding result [2]: binds
